Experimental data as given in patent US20250059285A1.

Biological target: cynomolgus Gal10-His (WGS isoform) (cynomolgus)
Assay: SPR Biacore 3000 on cynomolgus Gal10 (WGS isoform)

B1: g7B07-mIgG1 (antibody, V domains shown)
VH: EVQLLESGGGLVQPGGSLRLSCAASGFTFRSYDMSWVRQAPGKGLEWVSAIKNGGGITYYADSVKGRFTISRDNSKNTLYLQMNSLRAEDTAVYYCATTHGIGTLGFGSWGQGTLVTVSS
VL: SYELTQPLSVSVALGQTARITCDGNNIGSKSAQWYQQKPGQAPVLVIYADEYRPEGIPERFSGSNSGNTATLTISRAQAGDEADYYCQVWDGSAAVFGGGTQLTVL
  Kd: 1.5 nM
